Measured values reported in PMC8079276.

Target: UDP-N-acetylglucosamine-peptide N-acetylglucosaminyltransferase (mouse (endogenous in MEFs)) (UniProt Q8CGY8)
Experiment: co-IP; data not shown: share of HCF1 of the MEF lysate that is enriched by immunoprecipitation of endogenous OGT

UniProt Q8CGY8, sequence (Q8CGY8 whole entry): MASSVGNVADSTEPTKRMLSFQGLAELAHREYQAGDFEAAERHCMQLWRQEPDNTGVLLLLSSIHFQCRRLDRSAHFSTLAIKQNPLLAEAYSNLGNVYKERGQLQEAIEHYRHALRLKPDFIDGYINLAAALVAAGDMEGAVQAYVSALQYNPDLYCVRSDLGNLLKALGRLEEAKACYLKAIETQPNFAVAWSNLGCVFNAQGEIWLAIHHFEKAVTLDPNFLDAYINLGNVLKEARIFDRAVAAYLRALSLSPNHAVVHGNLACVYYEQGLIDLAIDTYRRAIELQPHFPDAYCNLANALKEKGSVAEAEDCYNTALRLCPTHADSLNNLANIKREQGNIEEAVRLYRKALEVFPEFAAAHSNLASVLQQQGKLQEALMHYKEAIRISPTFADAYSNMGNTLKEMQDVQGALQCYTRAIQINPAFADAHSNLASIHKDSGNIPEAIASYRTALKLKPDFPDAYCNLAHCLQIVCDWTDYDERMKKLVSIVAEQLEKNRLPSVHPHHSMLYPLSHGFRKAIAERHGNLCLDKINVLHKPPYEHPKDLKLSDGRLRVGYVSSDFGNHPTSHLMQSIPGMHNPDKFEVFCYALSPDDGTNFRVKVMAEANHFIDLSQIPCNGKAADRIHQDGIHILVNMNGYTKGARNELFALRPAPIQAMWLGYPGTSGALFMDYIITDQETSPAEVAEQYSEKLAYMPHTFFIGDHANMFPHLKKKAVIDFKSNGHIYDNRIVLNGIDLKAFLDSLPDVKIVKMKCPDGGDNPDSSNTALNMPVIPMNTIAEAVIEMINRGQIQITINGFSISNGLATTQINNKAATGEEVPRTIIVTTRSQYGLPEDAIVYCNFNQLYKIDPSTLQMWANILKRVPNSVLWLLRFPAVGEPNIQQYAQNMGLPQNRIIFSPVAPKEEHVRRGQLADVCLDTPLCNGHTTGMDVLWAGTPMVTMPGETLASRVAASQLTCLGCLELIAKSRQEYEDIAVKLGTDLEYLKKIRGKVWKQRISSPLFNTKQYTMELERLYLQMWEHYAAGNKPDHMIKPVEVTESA

- percent of FL HCF1 enriched by OGT immunoprecipitation: 80 to 90%
Substance: Host cell factor 1 precursor, Q61191 1-2045
